Assay results reported in the supplement of paper PMC10567573.

B1: TRIM15 (parent)
chain: LSQMGAQSSGKILLCPLCQEEEQA

Variants of: B1
Experiment: protein stability index of a GFP-peptide fusion (GPS, HEK-293T) (PSI 1-6); higher = more stable
Conditions: c terminus: a fixed tail appended
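Also: lentivirally expressed fusions sorted by FACS into six bins by GFP to DsRed ratio, PSI derived from sequencing read proportions per bin multiplied by bin number.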

Variant | protein stability index
S8R | 3.89
S8T | 3.55
S8V | 3.51
S8W | 2.65
S8Y | 3.49
S9A | 3.07
S9C | 3.86
S9D | 3.7
S9E | 2.93
S9F | 2.36
S9G | 2.64
S9H | 3.71
S9I | 3
S9K | 3.78
S9L | 3.4
S9M | 2.57
S9N | 3
S9P | 3.49
S9Q | 2.65
S9R | 2.99
S9T | 3.8
S9W | 2.96
S9Y | 3.9
G10C | 3.86

Variant | protein stability index
G10D | 4.3
G10E | 3.89
G10F | 2.74
G10H | 3.71
G10I | 2.5
G10K | 3.71
G10L | 2.53
G10M | 3.83
G10N | 4.54
G10P | 3.78
G10Q | 3.58
G10R | 3.22
G10S | 3.79
G10T | 3.71
G10V | 3.19
G10W | 2.55
G10Y | 2.83
K11A | 3.14
K11C | 2.79
K11D | 2.81
K11E | 3.11
K11F | 2.44
K11G | 2.27
K11H | 2.72

Variant | protein stability index
K11I | 3.03
K11L | 1.76
K11M | 3.12
K11N | 4.26
K11P | 3.6
K11Q | 3.9
K11R | 3.03
K11S | 3.79
K11T | 3
K11V | 2.04
K11W | 2.76
K11Y | 2.64
I12A | 4.19
I12D | 4.21
I12E | 3.56
I12F | 3.52
I12G | 4.59
I12H | 3.51
I12K | 4.04
I12L | 4.04
I12M | 3.79
I12N | 3.09
I12Q | 4.27
I12S | 4.57

Variant | protein stability index
I12T | 3.42
I12V | 4.5
I12Y | 3.61
L13A | 4.87
L13C | 4.67
L13D | 4.5
L13E | 4.24
L13F | 4.09
L13G | 4.65
L13H | 5.52
L13I | 4.08
L13K | 4.65
L13M | 4.74
L13N | 4.63
L13P | 3.97
L13Q | 4.1
L13R | 4.71
L13S | 4.5
L13T | 4.51
L13Y | 4.25
L14A | 5.21
L14C | 3.94
L14D | 4.72
L14F | 3.59

Variant | protein stability index
L14H | 3.36
L14I | 3.91
L14M | 3.98
L14N | 3.56
L14Q | 4.52
L14R | 4.15
L14S | 4.72
L14T | 4.66
L14V | 2.99
L14W | 2.93
L14Y | 4.23
C15D | 5.58
C15E | 5.1
C15F | 4.16
C15G | 5.51
C15H | 4.74
C15I | 3.77
C15K | 4.65
C15L | 3.9
C15M | 4.64
C15N | 5.22
C15P | 4.96
C15Q | 4.96
C15R | 4.43

Variant | protein stability index
C15S | 4.98
C15T | 5.05
C15W | 4.47
C15Y | 4.39
P16A | 2.92
P16C | 2.59
P16D | 4.05
P16F | 4.36
P16H | 3.8
P16K | 4.19
P16L | 3.37
P16M | 3.98
P16N | 4.1
P16Q | 4.22
P16R | 3.39
P16T | 3.91
P16V | 3.29
P16W | 2.9
P16Y | 2.97
L17A | 3.63
L17C | 3.76
L17D | 4.97
L17F | 3.23
L17G | 4.13

Variant | protein stability index
L17H | 3.79
L17K | 3.6
L17M | 3.19
L17N | 4.43
L17P | 5.04
L17Q | 4.19
L17R | 4.31
L17S | 4.24
L17T | 4.3
L17V | 3.79
L17W | 3.57
L17Y | 3.34
C18A | 5.26
C18D | 5.2
C18E | 5.13
C18F | 3.81
C18H | 4.7
C18I | 3.49
C18K | 4.27
C18L | 4.82
C18M | 4.61
C18N | 4.38
C18P | 3.47
